Columns and labels:
[1] = biological target: lrp8_human LRP8 (UniProt Q14114)
[2] = biological target: vldlr_human VLDLR (UniProt P98155)

Sequence of lrp8_human LRP8 (Q14114 whole entry): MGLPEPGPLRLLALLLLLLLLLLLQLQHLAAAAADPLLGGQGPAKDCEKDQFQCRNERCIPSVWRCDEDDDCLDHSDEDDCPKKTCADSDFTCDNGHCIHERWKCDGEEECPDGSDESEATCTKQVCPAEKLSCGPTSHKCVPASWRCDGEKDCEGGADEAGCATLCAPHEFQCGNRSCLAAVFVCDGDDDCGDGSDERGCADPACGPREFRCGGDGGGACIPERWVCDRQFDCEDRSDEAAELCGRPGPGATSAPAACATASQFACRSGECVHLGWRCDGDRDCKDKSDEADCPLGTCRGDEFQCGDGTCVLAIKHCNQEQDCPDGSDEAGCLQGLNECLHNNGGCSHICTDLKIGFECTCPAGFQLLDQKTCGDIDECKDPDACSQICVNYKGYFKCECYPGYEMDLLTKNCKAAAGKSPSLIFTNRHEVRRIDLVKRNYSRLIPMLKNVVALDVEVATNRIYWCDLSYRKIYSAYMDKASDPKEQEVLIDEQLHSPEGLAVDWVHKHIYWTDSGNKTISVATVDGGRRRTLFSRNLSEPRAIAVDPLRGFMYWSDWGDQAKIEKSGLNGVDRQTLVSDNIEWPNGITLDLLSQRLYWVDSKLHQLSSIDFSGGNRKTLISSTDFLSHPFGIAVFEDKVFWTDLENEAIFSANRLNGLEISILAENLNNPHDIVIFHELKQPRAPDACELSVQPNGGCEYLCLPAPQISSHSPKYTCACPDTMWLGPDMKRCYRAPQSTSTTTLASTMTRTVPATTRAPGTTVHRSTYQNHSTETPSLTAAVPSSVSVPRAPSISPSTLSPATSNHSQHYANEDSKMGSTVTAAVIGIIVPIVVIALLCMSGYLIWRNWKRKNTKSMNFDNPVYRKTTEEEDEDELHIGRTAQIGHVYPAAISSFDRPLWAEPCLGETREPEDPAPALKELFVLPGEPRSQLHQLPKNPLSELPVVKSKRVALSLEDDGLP

Row | effect of a mutation on the interaction [1] | effect of a mutation on the interaction [2] | Substance
1 | disrupting interaction strength | – | Reelin (Mus musculus), Q60841 K2360A
2 | disrupting interaction strength | – | Reelin (Mus musculus), Q60841 K2360A;K2467A
3 | disrupting interaction strength | disrupting interaction strength | Reelin (Mus musculus), Q60841 K2467A

— IntAct's records for PubMed 17548821
